What was measured:
[1] = target: AcrIIA22 2-amino acid C-terminal truncation mutant (thrombin-cleaved) (unnamed clostridial genus CAG-217 (human gut metagenome)); assay: SEC; thrombin-cleaved AcrIIA22 variants; Superdex75 16/60; 25 mM Tris pH 7.5, 200 mM NaCl; size against protein standards
[2] = target: AcrIIA22 (thrombin-cleaved, from the N-terminal His6 construct) (unnamed clostridial genus CAG-217 (human gut metagenome)); assay: as above

stoichiometry N [1]	stoichiometry N [2]	Substance
2		AcrIIA22 2-amino acid C-terminal truncation mutant (thrombin-cleaved) (domain or fragment)
	4	AcrIIA22 (thrombin-cleaved, from the N-terminal His6 construct) (natural protein)

— publication PMC8545432
